Measured values: the supplement of paper PMC10126150
± gives the standard deviation of the averaged measurements.

Tested on: ATP
Test: switch fluorescence ratio, 500 uM ATP over buffer (Cy3 cluster intensity, sum of 5 cycles each) (fold (ratio)); higher = stronger signal-on switching upon ATP binding; sequences stand for … in TCGTCGGCAGCGTCAGATGTGTATAAGAGACAGTTTTTTTTTTTTTTTTTTTTTTTTT…TC
Conditions: aptamer strand: ATP DNA aptamer (quencher-CACCTGGGGGAGTATTGCGGAGGAAGG + anchor), 100 nM annealed; ATP concentration: 500 uM
Outline: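 Exposure to 500 uM ATP lasted 15 min at 22 °C before imaging, and a selection-buffer image was taken beforehand, for Cy3-labelled switching-strand clusters on a modified Illumina MiSeq flow-cell annealed to 100 nM quencher-labelled ATP aptamer. Five buffer/ATP cycles were run with NaOH stripping and re-annealing between them. The fluorescence ratio per cluster is summed target-cycle over summed buffer-cycle Cy3 intensity, averaged per switch-domain sequence. Clusters outside 100-1000 RFU were excluded.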

Sequence | switch fluorescence ratio
CGTCTCGAAC | 1 ± 0.014
ACACACTCAA | 1.28 ± 0.029
CAATCTGATA | 0.99 ± 0.016
GGGATAAATA | 0.9996 ± 0.0023
ACAATCTTTA | 0.994 ± 0.03
CTATACAGTG | 1.02 ± 0.011
GGGAGTAGCC | 1.01 ± 0.059
TAGGGTTCAG | 0.993 ± 0.029
GGGGCGTATC | 1.01 ± 0.04
CTATGAAAAG | 1 ± 0.021
ATAAGTCCGG | 1.03 ± 0.042
ACTTCGTATG | 1.03 ± 0.011
CTGGTTCTTC | 0.95 ± 0.022
ATGTTAAATG | 1 ± 0.016
AAAGCTCGTG | 1 ± 0.015
GTATCGTACG | 0.984 ± 0.014
CTTCGGGGGT | 1.02 ± 0.019
ATTTTAATTT | 1.01 ± 0.015
CCCGAGTTAT | 1.067 ± 0.01
GTTCGGCGAT | 1.03 ± 0.013
CAGTCACTTG | 1.01 ± 0.029
CGTGGTCATC | 0.9766 ± 0.0073
GACTCCGATT | 2.28 ± 0.1

Sequence | switch fluorescence ratio
GGGTCGCGGG | 0.9946 ± 0.0024
ATATAGAGTT | 1.02 ± 0.082
CGTTGAGTTT | 0.994 ± 0.047
CTCCGGCTGG | 1.19 ± 0.14
GACTGAGAGT | 1 ± 0.054
AAGTGGGGAG | 1 ± 0.024
GACCGCATTT | 1.68 ± 0.46
ACTTACAGCT | 1.19 ± 0.017
GAAATTTAGA | 1.01 ± 0.028
ATGAGTGGCT | 0.999 ± 0.054
TCAGACACGG | 1.04 ± 0.039
TAAAAAATGG | 1 ± 0.044
TTTGTGTAGG | 1.02 ± 0.049
TGAACTAATT | 1.01 ± 0.0099
GGAGGTACAC | 1.03 ± 0.037
TTTCTGGGGG | 0.984 ± 0.019
TTGTGTTAGG | 0.994 ± 0.031
TAGTAGTTGT | 1 ± 0.013
TTATAGGTGC | 1.11 ± 0.022
CATAATAACC | 1.03 ± 0.018
GTTTAATGTT | 1.023 ± 0.0022
ATTGTCATGT | 1.047 ± 0.0062
GCTGGAGGTG | 1.03 ± 0.039

Sequence | switch fluorescence ratio
CGATAGAAAG | 1.01 ± 0.024
TTGCGGGGAA | 1.03 ± 0.029
GAAAGTTCAG | 1.002 ± 0.0098
AATTTGTTTT | 1.02 ± 0.028
ATTTTAAGAG | 1.01 ± 0.02
GAGTCCGTGG | 1.1 ± 0.021
TAATTACGGA | 1.06 ± 0.026
TTCGATTTAT | 1.03 ± 0.024
CCTAATTTTA | 0.971 ± 0.043
ATGGTGTAGC | 0.986 ± 0.016
GTTAGTAGGT | 0.994 ± 0.021
TATTTAACAC | 1.1 ± 0.12
AAAATCGCGT | 0.998 ± 0.057
TTGTGGTATT | 0.99 ± 0.0084
GCGGAGACTG | 0.962 ± 0.069
CTAAATTTC | 1.02 ± 0.08
GTTGGAGCAT | 1.086 ± 0.0023
TTGGACCATG | 1.01 ± 0.038
AGGCGGCGAG | 1 ± 0.024
GGCACGTATA | 1.17 ± 0.014
GGGCTCTTGC | 0.98 ± 0.068
GATTAAATAC | 1.24 ± 0.064
TTGTCGTCTC | 0.986 ± 0.041

Sequence | switch fluorescence ratio
TGCAGGTGGC | 1.13 ± 0.035
TCTCTGAGGA | 0.985 ± 0.013
TCAGTGGACG | 0.996 ± 0.072
AACATGTCTC | 1.01 ± 0.043
TAGAGCTAC | 1.17 ± 0.049
TGGTGTGATG | 1.007 ± 0.0026
AACTATAAGA | 1.06 ± 0.1
TGCAGGAGCT | 1.01 ± 0.032
AACGTTGGAC | 1.1 ± 0.029
AAGGGCATTA | 0.9891 ± 0.0096
AGGAAGGG | 1.0069 ± 0.00083
AAACCCAGCT | 0.988 ± 0.02
TGGGTGCGTC | 0.988 ± 0.014
TAAATATTGG | 1.04 ± 0.034
TAGTATAGGC | 1.14 ± 0.17
AAAATGGACA | 1.03 ± 0.019
GGTAACATCG | 1.003 ± 0.0066
ATTCAATCGG | 0.98 ± 0.024
CTTACGTGCC | 1 ± 0.036
CAAAGGATGA | 0.988 ± 0.002
GACTATGGGA | 1.42 ± 0.55
GAAGAACCGG | 0.974 ± 0.022
TGTTTTTAGG | 0.989 ± 0.023

Sequence | switch fluorescence ratio
GGGGTGACTG | 1.05 ± 0.048
AATTCAGTGT | 1.01 ± 0.025
TATAATGTTT | 1.02 ± 0.048
AAACGATTTC | 1.01 ± 0.019
TTGCTGTTGT | 1.01 ± 0.022
AATAATATTA | 0.975 ± 0.019
AAGTGTTAGC | 0.995 ± 0.022
GTAGATAGTT | 1.02 ± 0.036
TTTGGTCCCT | 0.993 ± 0.016
AAGCTACGTG | 1.05 ± 0.013
ATTTGAGTAT | 1.004 ± 0.0093
TTCCGGCTAT | 1.15 ± 0.064
TTATATCTTG | 1.0191 ± 0.00086
GGACAGGCGC | 1.006 ± 0.0024
CTGTATGCGG | 1.02 ± 0.089
GAGTTGGGTG | 1.01 ± 0.032
ATACCTGAGC | 1.113 ± 0.0041
TTATTTATAT | 0.971 ± 0.013
CTCTCCTTGT | 1.3 ± 0.38
TTGGGCAGAG | 0.993 ± 0.043
TAAAAATTTT | 0.999 ± 0.01
GTTGACGGTA | 1.01 ± 0.015
GGATAGGGTG | 1.06 ± 0.076

Sequence | switch fluorescence ratio
TCATGCGAAA | 1.1 ± 0.013
TAAAAGAGGT | 0.9962 ± 0.0081
AGCGACGGGA | 1.1 ± 0.048
ACCGGGGGCC | 1.02 ± 0.013
TGGGACCGCG | 1.03 ± 0.084
TGTTTGAAGC | 0.9679 ± 0.0096
ATTGTTTTTA | 0.998 ± 0.033
ACCCTAGTTG | 1.148 ± 0.0094
TTGAGATGGA | 1.01 ± 0.0062
TTCTATGTTT | 0.996 ± 0.0094
TGTTTTCTGT | 0.976 ± 0.04
TTTCGAGGGT | 1.006 ± 0.0034
CGTGGGTCTT | 1.04 ± 0.03
TGGTTGGTGG | 1.05 ± 0.09
GGTATCTAGT | 1.02 ± 0.032
CACAATATCT | 1.124 ± 0.0037
ATGGGGGTA | 1.004 ± 0.002
CAGGTAGATC | 1.04 ± 0.05
GAGAGGAGCT | 1.01 ± 0.039
ATAGGTTCGG | 0.968 ± 0.021
AAAAGTTGTT | 1.04 ± 0.019
TCCTAAATGT | 0.976 ± 0.048
GGTTCATGTG | 1.01 ± 0.015

Sequence | switch fluorescence ratio
TGGGACACAG | 1.004 ± 0.007
TCAGTGTGTT | 1.02 ± 0.038
CTGTTACTGC | 1 ± 0.031
AGGGGGTTGC | 1.01 ± 0.026
AGTTTGTGTG | 0.977 ± 0.014
GGAAGGGCTT | 1 ± 0.034
GCGCGCTGGG | 0.9646 ± 0.0044
AGGAATATCA | 0.998 ± 0.041
AAATTGCTGC | 1.01 ± 0.036
GGTGTTTTAG | 0.989 ± 0.021
TGTGTCAGAC | 1.01 ± 0.03
TGACAAGGGG | 1.05 ± 0.044
ACCTGGAATT | 1.01 ± 0.031
AGGGGTGGTT | 0.9581 ± 0.0017
CGGCCTGGCG | 0.969 ± 0.016
TTTTTCCCCA | 1.05 ± 0.042
TCGAGCGCAC | 2.54 ± 0.34
TTAGTCATTC | 0.99 ± 0.038
GGGGTGGCGA | 1.01 ± 0.045
